Reference: patent publication US20250066483A1 (FUSO PHARMACEUTICAL INDUSTRIES, published 2025)

How the values were obtained:
bovine FcγRI-His = target: T1, bovine FcγRI-His (bovine); test: ELISA: antibody immobilized at 1.56 to 50 nM, bovine FcγRI-His added at 10 µg/ml, detection with anti-polyhistidine antibody and HRP anti-mouse IgG [A]
T1 construct: extracellular domain; Made in Expi293F cells; also called soluble bovine FcγRI
Description: (§1) Subsequently, each well was washed with 200 μl of 0.05% Tween 20-supplemented PBS (PBS-T) five times, followed by blocking with SuperBlock (PBS) Blocking Buffer (Thermo Fisher Scientific) at 37° C. for 30 min. Each well was washed again in the same manner. Then, bovine FcγRI-His, FcγRII-His, FcγRIII-His or Fcγ2R-His was added to each well at a final concentration of 10 μg/ml and reacted at 37° C. for 1 hr. After washing, anti-polyhistidine tag mouse monoclonal antibody (Abcam) was reacted at 37° C. for 30 min. Subsequently, each well was washed, and horseradish peroxidase-labeled anti-mouse IgG goat polyclonal antibody (MP Biomedicals) was reacted at 37° C. for 30 min. Each well was washed again, and then TMB One Component Substrate (Bethyl) was added for coloring. Thereafter, the enzyme reaction was terminated with 0.18 M dilute sulfuric acid, and absorbance (450 nm) was measured with Microplate Reader MTP-900 (Corona Electric).

bovine FcγRII-His = target: T2, bovine FcγRII-His (bovine, UniProt Q28110 43-225); test: ELISA: antibody immobilized at 1.56 to 50 nM, bovine FcγRII-His added at 10 µg/ml [B]
T2 construct: extracellular domain; Made in Expi293F cells; also called soluble bovine FcγRII
T2 sequence: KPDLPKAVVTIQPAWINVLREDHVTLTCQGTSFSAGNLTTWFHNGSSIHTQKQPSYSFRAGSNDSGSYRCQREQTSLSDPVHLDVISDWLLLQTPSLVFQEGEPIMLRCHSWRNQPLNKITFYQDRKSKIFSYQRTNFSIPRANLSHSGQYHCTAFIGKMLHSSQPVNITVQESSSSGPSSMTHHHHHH
Description: as §1

bovine PD-1-His = target: T3, bovine PD-1-His (bovine); test: SPR (Biacore X100), bovine PD-1-His immobilised on a CM5 chip, antibody as analyte, single kinetics, 3 repeats
T3 construct: extracellular domain; Made in Expi293F cells; also called soluble bovine PD-1-His; PD-1 protein
Description: The binding avidities to bovine PD-1 of rat anti-bovine PD-1 antibody 5D2 and rat-bovine chimeric anti-bovine PD-1 antibody ch5D2 were measured by surface plasmon resonance using a biomolecular interaction analyzer (Biacore X100). Briefly, bovine PD-1-His (described above) was immobilized on a CM5 sensor chip (GE Healthcare) as a ligand. Subsequently, rat anti-bovine PD-1 antibody 5D2 or rat-bovine chimeric anti-bovine PD-1 antibody ch5D2 was reacted as an analyte, followed by single kinetics analysis. The experiment was repeated 3 times under the same conditions. Binding constant (kd value) and dissociation constant (ka value) were determined in each experiment, and binding avidity (KD value) was obtained.

canine PD-L1-His = target: T4, canine PD-L1-His (canine); test: SPR (Biacore X100), cPD-L1-His captured by anti-histidine antibody on a CM5 chip, antibody as analyte
T4 construct: extracellular domain; Made in Expi293F cells; also called cPD-L1-His
Description: Using a biomolecular interaction analyzer (Biacore X100), the binding avidities to cPD-L1-His of rat anti-bovine PD-L1 monoclonal antibody 4G12 and rat-canine chimeric anti-PD-L1 antibody c4G12 were assessed. Briefly, anti-histidine antibody was fixed on CM5 censor chip, followed by capturing of cPD-L1-His. Subsequently, monoclonal antibodies were added as analyte to observe specific binding. […] Further, the binding avidities of canine PD-1-Ig and CD80-Ig to cPD-L1-His were measured in the same manner and found to be clearly lower than that of rat-canine chimeric anti-PD-L1 antibody c4G12 (Table 1).

[1] = target: T5, canine PD-L1 on cPD-L1-EGFP expressing COS-7 cells (canine, UniProt E2RKZ5 19-289); test: flow cytometry (section 2.5)
T5 construct: Transient expression in COS-7 cells; also called canine PD-L1 expressing cells; cPD-L1-EGFP expressing cell
T5 sequence: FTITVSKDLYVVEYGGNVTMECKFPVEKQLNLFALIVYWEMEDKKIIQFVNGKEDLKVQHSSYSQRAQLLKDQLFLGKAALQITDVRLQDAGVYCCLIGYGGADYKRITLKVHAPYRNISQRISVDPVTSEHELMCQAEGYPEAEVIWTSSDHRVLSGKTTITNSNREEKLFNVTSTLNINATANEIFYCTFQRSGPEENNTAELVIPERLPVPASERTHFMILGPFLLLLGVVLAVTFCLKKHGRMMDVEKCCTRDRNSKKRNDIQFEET
Description: In order to identify rat anti-bovine PD-L1 monoclonal antibody showing cross-reactivity with canine PD-L1, flow cytometry was performed using the anti-bovine PD-L1 antibody prepared in 2.1 above. The anti-bovine PD-L1 antibody (10 μg/ml) was reacted with 2×10⁵-1×10⁶ cells at room temperature for 30 min. After washing, the anti-bovine PD-L1 antibody was detected with allophycocyanine-labeled anti-rat Ig goat antibody (Beckman Coulter). FACS Verse (Becton, Dickinson and Company) was used for analysis. As negative controls, rat IgG2a (κ) isotype control (BD Biosciences), rat IgG1 (κ) isotype control (BD Biosciences) and rat IgM (κ) isotype control (BD Biosciences) were used. For every washing operation and dilution of antibodies, 10% inactivated goat serum-supplemented PBS was used (MaekawaN, Konnai S, Ikebuchi R, Okagawa T, Adachi M, Takagi S, KagawaY, Nakajima C, Suzuki Y, Murata S, Ohashi K. PLoS One. 2014 Jun. 10; 9(6):e98415 which is an article describing the use of three bovine PD-L1 monoclonal antibodies: 4G12 (Rat IgG2a (κ)), 5A2 (Rat IgG1 (κ)) and 6G7 (Rat IgM (κ)).

[2] = target: T5, canine PD-L1 on cPD-L1-EGFP expressing …; test: flow cytometry on canine PD-L1 expressing cells

B1: rat-bovine chimeric anti-bovine PD-1 antibody ch5D2 having wild-type bovine IgG1 (IgG1 WT) (antibody)
heavy: QVQLKETGPGLVQPTQTLSITCTVSGFSLTSYYIQWVRQTPGKGLEWMGFIRSGGSTEYNSEFKSRLSINRDTSKNQVFLKMNSLKTEDTGVYYCARTSSGYEGGFDYWGQGVMVTVSSASTTAPKVYPLSSCCGDKSSSTVTLGCLVSSYMPEPVTVTWNSGALKSGVHTFPAVLQSSGLYSLSSMVTVPGSTSGQTFTCNVAHPASSTKVDKAVDPTCKPSPCDCCPPPELPGGPSVFIFPPKPKDTLTISGTPEVTCVVVDVGHDDPEVKFSWFVDDVEVNTATTKPREEQFNSTYRVVSALRIQHQDWTGGKEFKCKVHNEGLPAPIVRTISRTKGPAREPQVYVLAPPQEELSKSTVSLTCMVTSFYPDYIAVEWQRNGQPESEDKYGTTPPQLDADSSYFLYSKLRVDRNSWQEGDTYTCVVMHEALHNHYTQKSTSKSAGK
light: DVVLTQTPVSLSVTLGDQASISCRSSQSLEYSDGYTYLEWYLQKPGQSPQLLIYGVSNRFSGVPDRFIGSGSGTDFTLKISRVEPEDLGVYYCFQATHDPDTFGAGTKLELKQPKSPPSVTLFPPSTEELNGNKATLVCLISDFYPGSVTVVWKADGSTITRNVETTRASKQSNSKYAASSYLSLTSSDWKSKGSYSCEVTHEGSTVTKTVKPSECS
notes: Made in Expi293F cells; also called ch5D2 IgG1 WT
**Q.** With B1 as the binder, how does the “EC50 (read off the curve)” value (bovine FcγRI-His) read?
**A.** Its value is ~9 nM.

B2: rat-bovine chimeric anti-bovine PD-1 antibody ch5D2 (mutated bovine IgG1, IgG1 ADCC-) (antibody)
heavy: QVQLKETGPGLVQPTQTLSITCTVSGFSLTSYYIQWVRQTPGKGLEWMGFIRSGGSTEYNSEFKSRLSINRDTSKNQVFLKMNSLKTEDTGVYYCARTSSGYEGGFDYWGQGVMVTVSSASTTAPKVYPLSSCCGDKSSSTVTLGCLVSSYMPEPVTVTWNSGALKSGVHTFPAVLQSSGLYSLSSMVTVPGSTSGQTFTCNVAHPASSTKVDKAVDPTCKPSPCDCCPPPPVAGPSVFIFPPKPKDTLTISGTPEVTCVVVDVGHDDPEVKFSWFVDDVEVNTATTKPREEQFNSTYRVVSALRIQHQDWTGGKEFKCKVHNEGLPSSIVRTISRTKGPAREPQVYVLAPPQEELSKSTVSLTCMVTSFYPDYIAVEWQRNGQPESEDKYGTTPPQLDADSSYFLYSKLRVDRNSWQEGDTYTCVVMHEALHNHYTQKSTSKSAGK
light: DVVLTQTPVSLSVTLGDQASISCRSSQSLEYSDGYTYLEWYLQKPGQSPQLLIYGVSNRFSGVPDRFIGSGSGTDFTLKISRVEPEDLGVYYCFQATHDPDTFGAGTKLELKQPKSPPSVTLFPPSTEELNGNKATLVCLISDFYPGSVTVVWKADGSTITRNVETTRASKQSNSKYAASSYLSLTSSDWKSKGSYSCEVTHEGSTVTKTVKPSECS
notes: 5D2 variable regions on bovine IgG1 (modified from X62916); also called ch5D2 IgG1 ADCC-
**Q.** Does B2 bind (bovine FcγRII-His)?
**A.** Result: no binding (tested: 50 nM)

**Q.** And the Kd (bovine PD-1-His)?
**A.** The Kd was 10.5 nM.

**Q.** What about the koff (bovine PD-1-His) of the same binder?
**A.** The koff was 0.000216 s⁻¹.

**Q.** And the kon (bovine PD-1-His)?
**A.** Its kon is 20700 M⁻¹ s⁻¹.

B3: rat anti-bovine PD-L1 monoclonal antibody 4G12 (antibody, V domains shown)
VH: QVQLQQSGAELVKPGSSVKISCKASGYTFTSNFMHWVKQQPGNGLEWIGWIYPEYGNTKYNQKFDGKATLTADKSSSTAYMQLSSLTSEDSAVYFCASEEAVISLVYWGQGTLVTVSS
VL: DIAITQSPSSVAVSVGETVTLSCKSSQSLLYSENQKDYLGWYQQKPGQTPKPLIYWATNRHTGVPDRFTGSGSGTDFTLIISSVQAEDLADYYCGQYLVYPFTFGPGTKLELK
**Q.** B3 was tested. Which kon (canine PD-L1-His) did it give?
**A.** Its kon is 2.42e+06 M⁻¹ s⁻¹.

**Q.** Does B3 bind [1]?
**A.** Result: binds

B4: rat-canine chimeric anti-PD-L1 antibody c4G12 (antibody, V domains shown)
VH: QVQLQQSGAELVKPGSSVKISCKASGYTFTSNFMHWVKQQPGNGLEWIGWIYPEYGNTKYNQKFDGKATLTADKSSSTAYMQLSSLTSEDSAVYFCASEEAVISLVYWGQGTLVTVSS
VL: DIAITQSPSSVAVSVGETVTLSCKSSQSLLYSENQKDYLGWYQQKPGQTPKPLIYWATNRHTGVPDRFTGSGSGTDFTLIISSVQAEDLADYYCGQYLVYPFTFGPGTKLELKQ
notes: 4G12 variable regions on canine IgG-D (equivalent to human IgG4) heavy and canine lambda light constant regions
**Q.** Does B4 bind [2]?
**A.** Result: binds

**Q.** And the kon (canine PD-L1-His)?
**A.** The kon was 3.14e+06 M⁻¹ s⁻¹.
